Test results from the MegaScale stability set (Tsuboyama et al. 2023).

B1: 1ZHC (parent)
chain: HEFRDEISVLKANNPHFDKIFEKHNQLDDDIKTAEQQNASDAEVSHMKKQKLKLKDEIHSMIIEYREK

Variants of: B1
Assay: folding stability dG (cDNA display proteolysis); higher = more stable
Settings: PBS, room temperature

Folding stability dG [kcal/mol] of substitutions, site by site:
L52: K 0.948, Q 1.28, C 0.71, F 0.588, I 0.913, A 1.08, G -0.063, M 1.28, E 1.17, T 0.288, Y 0.359, N 0.952, W 0.394, V 0.329, H 0.494, S 0.812, D 1.02
I62: C -0.713, M 0.117, W -0.3, H -0.624, F 0.011, V 0.282, L 0.874
K53: V 0.811, A 1.12, Y 0.301, D -0.039, L 1.16, I 0.711, Q 0.53, S 0.351, M 1.05, N -0.015, H 0.266, W 0.603, P -0.251, C 0.879, E 0.543, T 0.66, R 0.995, F 0.261
I63: V 0.61, W -0.039, R 0.974, T 0.157, K 0.899, N 0.622, F 0.401, A 0.8, L 1.24, G -0.621, S 0.079, Q 1.12, E 0.513, C 1.17, H 0.728, D -0.032, M 1.4, Y 0.129
H59: M 1.92, Q 0.83, W 1.83, N 0.996, L 2.03, K 0.399, Y 1.61, A 0.525, R 1.04, D 1.11, S 0.624, E 1.21, I 1.83, F 1.43, T 1.06, V 1.3
V44: M 0.497, T -0.308, S -0.907, G 0.622, I 1.57, R -0.295, Y -0.518, K -0.664, L 1.37, C -0.468
E57: T 0.674, A 0.703, V 0.286, Q 0.719, S -0.103, Y 0.52, I 0.87, C 0.959, K 0.212, R -0.034, W 0.602, D -0.8, H -0.994, F -0.51, L 0.992, M 1.16
M61: Y 0.306, A -0.996, F 0.209, H 0.422, I 0.447, L 0.762, C -0.322, W -0.462
I58: V -0.599, M 0.19, F 0.304, L 0.496, R -0.534, W -0.545, C 0.015, H -0.628
H46: L 1.36, M 1.1, Y 1.19, A 1.5, G 0.785, W 1.29, Q 1.17, I 1.23, T 0.889, K 1.46, D 0.734, F 1.02, C 1.09, R 1.97, S 1.28, E 1.47, N 1.14, P -0.278, V 0.657
D41: V 0.775, Y 0.879, S 1.03, W 0.916, Q 0.972, L 0.874, P 1.28, M 0.722, R 0.76, N 0.532, T 0.736
Q50: I 0.757, R 0.642, S -0.299, W 0.792, E 0.976, M 1, T 0.433, L 1.55, A 0.475, F 0.915, K 0.22, Y 0.509, H 0.479, V 0.067, N -0.038, G -0.255, C 1.12
A42: G 0.074, W 0.189, F 0.065, T 0.44, R -0.079, E 1.26, I 0.572, V 0.662, K 0.633, P 0.446, C 0.68, Q 0.718, D 0.989, Y 0.635, H 0.433, S 0.359, N 0.432, L 0.464, M 0.539
L54: M -0.648, Y 0.165, C -0.495, W -0.913, I -0.626
M47: C -0.078, A -0.981, L 1.59, W 0.576, V -0.869, Y -0.412, I -0.393
D56: H 1.07, Q 1.51, W 1.39, T 0.838, S 0.621, Y 1.5, M 1.57, V 1.02, C 1.36, I 1.25, K 1.22, E 1.29, N 1.07, L 1.61, F 1.18, R 1.21, G 0.971, A 1.27
K51: N -0.683, M 1.52, Q 0.766, C 0.855, W 1.57, Y 1.5, L 2.36, G -0.631, H 0.299, A 0.915, I 1.3, R 1.29, E -0.779, S 0.403, F 1.65, V 0.721
K49: F 0.439, Q 1.27, N 0.588, M 1.19, E 0.919, L 0.949, T 0.971, G 0.492, D 0.75, I 1.18, Y 1.2, W 0.556, S 0.881, R 1.03, A 1.29, C 1.11, V 0.867, H 0.527
K48: E -0.818, M 0.757, T 0.032, V 0.419, R 0.398, Q 0.238, N -0.844, A 0.086, F 0.266, S -0.947, W 0.118, Y 0.617, C 0.421, L 0.4, I 0.568
S45: C 1.15, Y 0.766, T 1.34, E 1.07, K 0.976, R 0.873, L 0.524, I 0.788, F 0.625, D 0.937, N 1.05, V 0.431, H 0.845, W 0.834, M 1.01, G 0.349, A 1.09
E43: C 1.01, Q 0.669, A 0.759, L 1.14, D 1.26, S 0.44, M 1.12, I 1.27, N 0.299, H 0.621, R 1.08, T 0.763, W 1.26, F 1.07, V 1.22, K 1.24, G -0.301, Y 1.2
K55: R 1.51, L 1.45, A 1.67, F 1.65, Y 1.47, C 2.15, W 2.94, G 0.766, I 1.09, D 0.359, Q 1.28, T 0.273, N 0.726, E 0.926, M 1.72, H 1.27, V 0.758, S 1.14
S60: A 1.48, F 0.717, E 0.466, G 0.362, T 0.912, L 0.991, N 0.933, R 1.65, M 1.29, D 0.536, H 0.79, Q 1.2, I 0.697, K 1.51, V 0.267, C 1.18, W 0.696, Y 0.561
